The results in this text go back to the nanobody polyreactivity screen of Harvey et al. (2022).

The series is described as follows: yeast display, Sf9 membrane polyspecificity reagent, FACS + sequencing; frameworks hold sequencing errors. The essentials: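 Synthetic nanobody libraries on Saccharomyces cerevisiae BJ5465 were galactose-induced for 36–48 hours, stained 1 hour at 4 °C with 10% biotinylated, detergent-solubilized Sf9 membrane reagent and enriched on streptavidin microbeads. FACS then separated cells into low and high (top ~1%) gates by anti-HA (expression) and streptavidin (reagent binding) fluorescence. Genes were colony-PCR amplified, MiSeq 2 × 250 sequenced and CDR-length filtered. A clone's polyreactivity label is that of its gate of origin.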
“LVQAGGSLRLSCAASVNTSGKNAMGWYRQAPGKERELVAAISSAGSTNYADSVKGRFTISRDNAKNTVYLQMNSLKPEDTAVYYCNAVRRLATVKTYRFNYWGQGTQVTVSS”: the “polyreactivity (PSR sort gate)” value was “low polyreactivity”.

For “QVQLVESGGGLVQAGGSLRLSCAASGYIWCYAMGWDRQAPGKEWELVAAISWGGGSTYYADSVKGRFTISRDNAKNTVYLQMNSLKREDTAVYYCAAVDAVGPTSHAMYYWGLGTQVTVSS”, the “polyreactivity (PSR sort gate)” value is given as “low polyreactivity”.

With “QVQLVESGGGLVQAGGSLRLSCAASGITFYYYVMGWYRQAPGKERELVASISRGGSTYYADSVKGRFTISRDNAKNTVYLQMNSLKPEDTAVYYCAAAGNRPWSITPFRKRYGYNYWGQGSQVTVSS”, the “polyreactivity (PSR sort gate)” value was “high polyreactivity”.

As to “QVQLVESGGGIVQAGGSLRLSCAASGSTFGWYAMGWYRPAPGKERELVAAISTSGNTYYADSVKGRFTISRDNAKNTVYLQLNSLKPEDTAVYYCAKYVNPDHDYWGQGTQVTVSS”, the “polyreactivity (PSR sort gate)” value is given as “low polyreactivity”.

Take “QVQLVESGGGLVQAGGSLRLSCAASGRIFSTNAMGWYRQAPGKEWELVAAITRGVSTKYADSVKGRFTISRDNAKNTVYLQMNSLKPEDTAVYYCAARVVWGPESDYWGQGTQVTVSS”: the “polyreactivity (PSR sort gate)” value is listed as “low polyreactivity”.

As to “QVQLVESGGGLVQAGGSLRLSCAASGFTFTYYTMGWYRQAPGKERELVAGISRSGGSTYYADSVKGRFTISRDNAKNTVYLQMNSLKPEDTAVYYCAAVVRSYSDRYDYWGQGTQVTVSS”, the “polyreactivity (PSR sort gate)” value is given as “high polyreactivity”.

Regarding “QDQLEESGGGLVQAGGSLRLSCSASGSIFRRNAMGWYRQAPGKERELVAGITRSTGDTYYADSVKGRFTISRDNAKNTVYLQMNSMKPEDTAVYYCAACGSYYRDDYWGQGTQVTVSS”, the “polyreactivity (PSR sort gate)” value is “low polyreactivity”.

Take “QVQLVESGGGLVQAGGSLRLSCAASGSILSKNAMGWYRQAPGKERELVAAITWSGGSTYYADSVKGRFTISRDNAKNTVYLQMNSLKPEDTAVYYCAADLDWSPHFGLPYDYWGQGTQVTVSS”: the “polyreactivity (PSR sort gate)” value was “low polyreactivity”.

Regarding “QVQLVESGGGLVQAGGSLRLSCAASGRTFRNYAMGWYRQAPAKERELVAAITWSGGSTYYADSVKGRFTISRDNSKNTVYLQMYSLKPEDTAVYYCNVRSYTRTYNYWGQGTQVTVSS”, the “polyreactivity (PSR sort gate)” value is “high polyreactivity”.

Regarding “HAQLQESGVGLVQAGGSLRRSCAASGSIFRFSGMGWYRRATGKERELVASIGFGSITYYADRVKVRFTISRDNANNTVYLQMTSLKPEDTAVYYCAVQVQDESWLDYWGQGTQVTVSC”, the “polyreactivity (PSR sort gate)” value is on record as “low polyreactivity”.

“QVQLVESGGGLVQAGGSLRLSCAASGSTIPTNAMGWYSQAPGKERELVAAITSTGSTYADSVKGRFTISRDNAKNTDYLQMNSLKPEDTAVYYCAADTQWTTPYDYWGQGTPVTVSS”: the “polyreactivity (PSR sort gate)” value is recorded as “low polyreactivity”.

“QVQLVESGGGLGQAGGSLRLSCAASGSIFSSYAMGWYRQAPGKERELVAAISQSGGDTYYADSVKGRFTISRDNAKNTVYLQMNSLKPEDTAVYYSAASVWYYPMDYWGQGTQVTVSS”: the “polyreactivity (PSR sort gate)” value is reported as “low polyreactivity”.

For the sequence “QVQLVESGGGLVQAGGSLRLSCAASGSIFTKYAMGWYRQAPGKERELLAAITSSSGRTYYADSVKGRFTISRDNAKNTVYLQMNSLKPEDTAVYYCNRGKRVAVSYRPGGYDYWGQGTQVTVSS”, the “polyreactivity (PSR sort gate)” value is given as “high polyreactivity”.

Consider “QVQLVESGGGLVQAGGSLRLSCAASGSIFKPYAMGWYRQAPGKERELVAAISTRGSSTYYADSVKGRFTISRDNAKNTVYLQMNSLIPEDTAVYYCAKRRYLWGYEYDSWGQGTQVTVSS”, for which the “polyreactivity (PSR sort gate)” value is on record as “high polyreactivity”.

On to “QVQLVESGGGLVQAGGSLRLSCAASGFTFVKYAMGWYRQAPGKERELVAVISRRGGSTYYADSVKGRFTISRDNAKNTVYLQMNSLKPEDTAVYYFAAKVALPRTQEWEYGYWGQGTQVTVSS”, for which the “polyreactivity (PSR sort gate)” value was “high polyreactivity”.

For “QVHLVESGGGLVQAGGSLRISCAASGSTFYYYTMGWYRQAPGKERELVAISWDGDSTYYADSVKGRFTISRDNAKNTVYLQMNSLKPEDTAVYYFNAEYTWSGTKIYTYKYDFWGPGTQVTVSS”, the “polyreactivity (PSR sort gate)” value is “low polyreactivity”.

On to “QVQLVESGGGLVQAGGSLRLSCAASGSIFVTYGMGWYRQAPGKERELVARITTSGGSTYYADSVKGRFTISRDNAKNTVYLQMNSLKQEDTAVYYCNVRFAWGWTYWRYDYWGQGTQVTVSS”, for which the “polyreactivity (PSR sort gate)” value is reported as “high polyreactivity”.

As for “QVQLVESGGGLVQSGGSLRLSCAASGGTFHKYDMGWYRQAPGKERELVAAITRSGGSTYYADSVKGRFTISRDNAKNTVYLQMNSLKPEDTAVYFCNAGKRGSTYYYWGQGTQVTVSS”, the “polyreactivity (PSR sort gate)” value is reported as “high polyreactivity”.

Regarding “QVQLVESGGGLVQAGGSLRLSCAASGITFPSYVMGWYRQAPGKEREFVAAITGSAGSTYYADSVKGRFTISRDNAKYTVYLQMNSLKPEDTAVYYCAARVRYVNPKYYYWGQGTQVTVSS”, the “polyreactivity (PSR sort gate)” value is reported as “high polyreactivity”.

“QDQLVESVGGLVQAGGSLRLSSAASGFIFYLYAIGWDRQAPGKERDLVAAITRRGGSTYYEDSVKGRFTISRDNAKNTVYLQMNSLKPEDTAVYDCAADHYGFFSAGDFDYWGQGTQVNVSS”: the “polyreactivity (PSR sort gate)” value is “high polyreactivity”.

Consider “QVQLVESGRGLVQAGGSLRLSCAASGFTFYYYANGWYRQAPGKERELVAAISIGGSTYYADSVKGRFTISRDNAKNTVYLQMNCLKPEDTAVYYCNVVFTYWPPGTARYDYWGQGTQVTVSS”, for which the “polyreactivity (PSR sort gate)” value is “high polyreactivity”.

As to “QVQLVESGGGLVQAGGSLRLSCAASGGIFAPYAMGWYRQAPGKERELVADITSDGGSTYYADSVKGRFTISRDNAKNTVYLQMNSLKPEDTAVYYCAAEQRYCWWGHPGDYWGQGTQVTVSS”, the “polyreactivity (PSR sort gate)” value was “low polyreactivity”.

As for “QVQLVESGGGLVQAGGSLRLSCAASGRTFYGYGMGWYRQAAGKEREFVAAISYSGGSTYYADSVKGRFTISRDNAKNTVYLQMNSLKPEDTAVYYCAARNRGSGFYYWGQGTQVTVSS”, the “polyreactivity (PSR sort gate)” value is “high polyreactivity”.

As for “QVQLVVSGGVLVQAGGSLRLSCAASGRTFASYTMGWYIQAAGKERELVAAISRGGNTYYADSVKGRFTISRDIAKNTVYLQMNSLKPDDTAVYYCAATAVKYDRRFYYWGQGTQVTVSS”, the “polyreactivity (PSR sort gate)” value is on record as “high polyreactivity”.

Regarding “QVKLVESGGGLVQAGGSLRLSCAASGIIFEVYAMGWYRQAPGKERELVAAITLSSGGITYYADSVKGRFTISRDYAKNTVYLQMNSLKPEDTAVYYCAAQHDNFSGPFEYWGQGTQVTVSS”, the “polyreactivity (PSR sort gate)” value is “low polyreactivity”.

As for “QVQLVESVGRLVQAGGSLRLSCDASGSIFYYAMGWYRQAPGKERELVAAITWRGGRTYYADSVKGRFTITRDNEKNTVYLQLNSLKPEDTAVYNCNAVAPCKYNHWGQGTQVTVSS”, the “polyreactivity (PSR sort gate)” value is listed as “high polyreactivity”.

As for “QVQLVESGGGLVQAGGSLRLSCAASGTIFVLYAMGWYRQAPGKERELVAAITTGGGTNYADSVKGRFTISRDNEKNTVYLQMNRLKPEDTAVYYCAADTGWYDDWTHDYWGQGTQVTVSS”, the “polyreactivity (PSR sort gate)” value is reported as “low polyreactivity”.

Turning to “QVQHVESGGGLVQAGGSLRLSCAASGRIFVPYGMGWYRQAPGKERELVAAISLRGGTTYYADSVKGRFTISRDNAKNTVYLQMNSLKPEDTAVYYCAARGYVSVWRPYHWFVAGDYWGQGTQVTVSS”, the “polyreactivity (PSR sort gate)” value is reported as “high polyreactivity”.

“QVQLVESGGGLVQAGGNLRLSCAASGLIFWYNAMGWYRQAPGKERELVAAINWSGDSTYYADSVKGRFTISRDNAKNTVYLQMNSLKPEDTAVYYCAATEQSYGYDYWGQGTQVTVSS”: the “polyreactivity (PSR sort gate)” value is on record as “low polyreactivity”.

Turning to “QVQLVESGGGLVQAGGSLRLSCAASGSIFFPYAMGWYRQAPGKERELVARISWGAGRTYYADSVKGRFTISRDNAKNTVYLQMNSLKPEDTAVYYCAARDRTRYAGYNYWGQGTQVTVSS”, the “polyreactivity (PSR sort gate)” value is “high polyreactivity”.

For “QVQLVESGGGLVQAGGSLRLICAASGFIIYSYAMGWYRQAPGKERELVAGITSDGRTYYADSVKGRFTISRDNAKNTVYLQMNSQKPEDTAVSYCAARYYLFYRVSPYYYWGQGTQVTVSS”, the “polyreactivity (PSR sort gate)” value is listed as “low polyreactivity”.

With “HVQLEESGGGLVQAGGSLRLSCAASGRIFYPYAMGWYRQAPGKERELVAAISRSGGSTYYADSVKGRFTISRDNAKNTVYLQMNSLKPEDTAVYYCATGFYRAISHHGYDYWGQGTQVTVSS”, the “polyreactivity (PSR sort gate)” value was “low polyreactivity”.

For the sequence “QVQLVESGGGLVHAGGSLRLSCDASGLKFRAYDMGRYRQAPGKERELVAAITSSSGSTYYADSVKGRFTISRDNAKNTVYLQMNSLKPEDTSVYYCNAYSTFGWYDYWGQGTQVTVSS”, the “polyreactivity (PSR sort gate)” value is recorded as “low polyreactivity”.

As for “QVQLVESGGGLVQAGGSLRLSCAASGRTFTYNAMGWYRQAPGKERELVATINTSGASTSYADSVKGRFTISRDNAKNTVYLQMNCLKPEDTAVYYCNRDRRYYHRFDYWGQGTQVTVSS”, the “polyreactivity (PSR sort gate)” value is recorded as “low polyreactivity”.

Turning to “QVQLVESGGGLVQSGGSLRLSCAASGSTFKFYAMGWYRQAPGKEREFVAAITSSGDSTYYADSVKGRFTISRDNAKNTVYLQMNSLKPEDTAVYYCAARLRWRYSYDYWGQGTQVTVSS”, the “polyreactivity (PSR sort gate)” value is on record as “high polyreactivity”.

As to “QVQLVESGGGLVQAGGSLRLSCAASGRISPKNAMGWYRQAPGKERELVATIRKIGGRTYYADSVKGRFTISRDNAKNTVYLQMNSLKPEDTAVYYCATDFAPSYYPDRFDYWGQGTQVTVSW”, the “polyreactivity (PSR sort gate)” value is “low polyreactivity”.

As for “QVQLVESGGGLVQAGGSLRLSCAASGRIFYPYAMGWYRQAPGKERDLVAAIRRSGVDTYYADSVKGRFTISRDNAKNTVYLQMNSLKPEDTAVYYCNKDGGGDSYWYDYWGQGTQVTVSS”, the “polyreactivity (PSR sort gate)” value is given as “low polyreactivity”.

For “QVQLVESGGGLVQAGGSLRLSCAASGRILPRNAMGWYRQAPGKERELVAAISWDGGSTYYADSVKGRFTISRDNAKNTVYLPMIRLKPEDTAVYYCATDYPSLHRGMDYWGQGTQVTVSS”, the “polyreactivity (PSR sort gate)” value was “low polyreactivity”.

Take “QVQLVESGGGLVQAGGSLRLSCAASARIIFRNAMGWYRQAPGKERELVAAITYSGGSTYYADSVKGRFTISRDNAKNTVYLQMNSLKPEDTAVYYCGAGYWFCYSRVTRYDYWGQGTQVTVSS”: the “polyreactivity (PSR sort gate)” value is on record as “high polyreactivity”.

In the case of “QVQLVESGGGLVQAGGSLRLSCAASGFIFDDNAMGWYRQAPGKERELVATITWSTGSTYYADSVKGRFTISRDNAKNTVYLQMNSLKPEDTAVYYCAKESYFYRYYLAYDYWGQGTQVTVSS”, the “polyreactivity (PSR sort gate)” value is on record as “low polyreactivity”.

Turning to “QVQLVESGGGLVQAGGSLRFSCADSGSTFGTYAMGWYRQAPGKERELVAAISWSGGSTYYADSVKGRFTISRDNAKNTVYLQMNSLKPEDTAVYWGQGTQVTVSS”, the “polyreactivity (PSR sort gate)” value is on record as “low polyreactivity”.
